Experimental data published in patent US20110059889A1 (SYNTONIX PHARMACEUTICALS, published 2011).
Read-outs that look alike come from different tables or passages of the source. Numbered stars: 1 amine (or outer) side, 2 acyl side, 3 side chain; on linkers, the order of the positions; unused ones are H or OH. Bridge positions count the residues as written; N and C are the ends. Square brackets hold non-standard residues; d marks the D form. Ends that are not written are not given here. X4 = (3S)‑3‑amino‑2‑oxo‑1‑piperidine‑acetic acid, O=C1[C@@H](N[*:1])CCCN1CC(=O)[*:2]; 5,5‑bicyclic dipeptide mimic = not defined here; Tyr(Me) = COc1ccc(C[C@H](N[*:1])C(=O)[*:2])cc1; Phe(3-Cl) = N[C@@H](Cc1cccc(Cl)c1)C(=O)O; Dip = N[C@H](C(=O)O)C(c1ccccc1)c1ccccc1; Phe(2-Cl) = N[C@@H](Cc1ccccc1Cl)C(=O)O; His(1-Me) = 1-methylhistidine; NMeL = CN[C@@H](CC(C)C)C(=O)O; Pen = CC(C)(S)[C@H](N)C(=O)O; Sar = CNCC(=O)O

Columns and labels:
[1] = biological target: T1, soluble human FcRn (shFcRn) (human, UniProt P55899 24-297; P61769 21-119); test: IgG competition ELISA
T1 construct: Biotinylated for the ELISA, amine-coupled to a CM5 chip for SPR; also called biotinylated shFcRn
T1 sequence (P55899 24-297 limits assumed, chain 1 of 2): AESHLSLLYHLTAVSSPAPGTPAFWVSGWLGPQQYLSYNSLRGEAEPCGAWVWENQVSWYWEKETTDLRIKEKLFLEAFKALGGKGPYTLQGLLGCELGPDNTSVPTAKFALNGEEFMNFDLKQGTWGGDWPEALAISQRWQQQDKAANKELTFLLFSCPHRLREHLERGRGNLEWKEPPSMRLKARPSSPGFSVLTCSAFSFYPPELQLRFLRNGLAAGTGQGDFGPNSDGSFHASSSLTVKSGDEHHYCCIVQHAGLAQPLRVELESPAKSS
T1 sequence (P61769 21-119 limits assumed, chain 2 of 2): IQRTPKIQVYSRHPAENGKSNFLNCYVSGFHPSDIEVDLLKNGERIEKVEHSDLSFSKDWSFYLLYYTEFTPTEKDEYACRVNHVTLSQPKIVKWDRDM
Description: (§1) The wells were coated with 100 μl/well of 1 μg/ml biotinylated-shFcRn in Buffer A. The plate was sealed and incubated at 37° C. for 2 hours. Afterwards, the plate was washed with 200 μl/well of Buffer B (Buffer B: 100 mM MES pH 6, 150 mM NaCl, 0.5% BSA IgG-free (Jackson ImmunoResearch, West Grove, Pa.), 0.05% Tween-20). […] To allow for mixing, the plate was rocked for 2 minutes, sealed and incubated at 37° C. for 2 hours. […] The plate was covered, incubated for 30 minutes at room temperature and washed 4 times with 200 μl/well of ice-cold buffer B. SureBlue TMB substrate solution (100 μl/well, KPL, Gaithersburg, Md.) was added and the plate was allowed to incubate at room temperature until color developed, which took 5 to 10 minutes. Once color developed, 100 μl/well of TMB stop solution (KPL, Gaithersburg, Md.) was added and the absorbance was measured at 450 nm. The data was plotted as absorbance vs. peptide concentration to derive the inhibitory concentration 50% (IC₅₀) values.

[2] = biological target: T1, soluble human FcRn (shFcRn); test: IgG competition ELISA; remark: listed apart in the source
Description: as §1

[3] = biological target: T1, soluble human FcRn (shFcRn); test: SPR pH 6
Description: (§2) The following steps were performed to cross-link soluble human or cynomolgus FcRn to the dextran surface of a CM5 sensor chip (Biacore AB, Uppsala, Sweden) by an amine coupling reaction involving 1-ethyl-(3-dimethylaminopropyl)-carbodiimide hydrochloride (EDC) (Biacore AB, Uppsala, Sweden) and N-hydroxysuccinimide (NHS) (Biacore AB, Uppsala, Sweden) as recommended by Biacore (BIAapplications Handbook, version AB, section 4.2, Biacore AB, Uppsala, Sweden). […] Residual sites on the FcRn flow cell were blocked with 1 M ethanolamine hydrochloride pH 8.5 (Biacore AB, Uppsala, Sweden). A control flow cell was blocked with ethanolamine for reference subtraction. For analysis of the monomeric peptides, FcRn was coated to a final density of 4000-5000 response units (RU). For analysis of the peptide dimers, FcRn was coated to a density of 2000-2500 RU. All SPR measurements were performed using a BIACORE 3000 Instrument (Biacore AB Uppsala, Sweden). For measurements done at either pH 6 or pH 7.4, experiments were performed in 50 mM phosphate, 100 mM sodium chloride, 0.01% surfactant P20 (Biacore AB, Uppsala, Sweden).
(§3) Ten, 2-fold dilutions of the peptide were injected over the FcRn-CM5 chip at a rate of 20 μl/min for 2 min. The peptide was dissociated from the chip for 2.5 minutes with buffer. Any remaining peptide was removed from the chip with a 30 second injection of HBS-P buffer (Biacore AB, Uppsala, Sweden) at a rate of 30 μl/min. Sensorgrams were generated and analyzed using BiaEval software version 3.1 (Biacore AB, Uppsala, Sweden). The equilibrium RU observed for each injection was plotted against concentration. The equilibrium KD values were derived by analysis of the plots using the steady state affinity model included in the BiaEval software.

[4] = biological target: T1, soluble human FcRn (shFcRn); test: IgG competition ELISA; remark: listed apart in the source
[5] = biological target: T1, soluble human FcRn (shFcRn); test: IgG competition ELISA; remark: listed apart in the source
Description: as §1

[6] = biological target: T1, soluble human FcRn (shFcRn); test: SPR pH 6; remark: listed apart in the source
Description: as §2, §3

B1: Peptide No. 222 (peptide)
peptide: RF[Pen]TGH[Phe(3-Cl)]GGLYPC-NH2
modifications: disulfide 3-13; N-terminus assumed
SMILES: CC(C)C[C@@H]1NC(=O)CNC(=O)CNC(=O)[C@H](Cc2cccc(Cl)c2)NC(=O)[C@H](Cc2c[nH]cn2)NC(=O)CNC(=O)[C@H]([C@@H](C)O)NC(=O)[C@@H](NC(=O)[C@H](Cc2ccccc2)NC(=O)[C@@H](N)CCCNC(=N)N)C(C)(C)SSC[C@@H](C(N)=O)NC(=O)[C@@H]2CCCN2C(=O)[C@H](Cc2ccc(O)cc2)NC1=O
[1]
  IC50: 3.7 µM

## RF[Pen]TGHF[5,5‑bicyclic dipeptide mimic]LYPC-NH2 (disulfide 3-12; reading uncertain, isomer only in drawing CHEM-US-00084) [Peptide No. 198]
[2]
  IC50: 23 µM

B2: Peptide No. 221 (peptide)
peptide: RF[Pen]TGH[Phe(2-Cl)]GGLYPC-NH2
modifications: disulfide 3-13; N-terminus assumed
SMILES: CC(C)C[C@@H]1NC(=O)CNC(=O)CNC(=O)[C@H](Cc2ccccc2Cl)NC(=O)[C@H](Cc2c[nH]cn2)NC(=O)CNC(=O)[C@H]([C@@H](C)O)NC(=O)[C@@H](NC(=O)[C@H](Cc2ccccc2)NC(=O)[C@@H](N)CCCNC(=N)N)C(C)(C)SSC[C@@H](C(N)=O)NC(=O)[C@@H]2CCCN2C(=O)[C@H](Cc2ccc(O)cc2)NC1=O
[1]
  IC50: 4 µM

B3: Peptide No. 239 (peptide)
peptide: RFCTGHFXLYPC
modifications: not fully specified; Pen 3; X 8 = 3(S)-3-amino-2-oxo-1-azepine acetic acid in place of Gly-Gly; NMeLeu 9; disulfide 3-12; C-terminal amide
[2]
  IC50: 0.62 µM

## QRF[Pen]TG[His(1-Me)]FGGLYPCNGP-NH2 (disulfide 4-14) [Peptide No. 138]
[3]
  Kd: 740 nM
[4]
  IC50: 3.4 µM

## QRFCTGHFXGLYPCNGP (Pen 4; Aib 9; disulfide 4-14; C-terminal amide) [Peptide No. 54]
[5]
  IC50: 17 µM
[6]
  Kd: 5.2 µM

B4: Peptide No. 224 (peptide)
peptide: RF[Pen]TGH[Dip]GGLYPC-NH2
modifications: disulfide 3-13; N-terminus assumed
SMILES: CC(C)C[C@@H]1NC(=O)CNC(=O)CNC(=O)[C@H](C(c2ccccc2)c2ccccc2)NC(=O)[C@H](Cc2c[nH]cn2)NC(=O)CNC(=O)[C@H]([C@@H](C)O)NC(=O)[C@@H](NC(=O)[C@H](Cc2ccccc2)NC(=O)[C@@H](N)CCCNC(=N)N)C(C)(C)SSC[C@@H](C(N)=O)NC(=O)[C@@H]2CCCN2C(=O)[C@H](Cc2ccc(O)cc2)NC1=O
[1]
  IC50: 32 µM

B5: Peptide No. 95 (peptide)
peptide: QRF[Pen]TGHWGGLYPCNGP-NH2
modifications: disulfide 4-14; N-terminus assumed
SMILES: CC(C)C[C@@H]1NC(=O)CNC(=O)CNC(=O)[C@H](Cc2c[nH]c3ccccc23)NC(=O)[C@H](Cc2c[nH]cn2)NC(=O)CNC(=O)[C@H]([C@@H](C)O)NC(=O)[C@@H](NC(=O)[C@H](Cc2ccccc2)NC(=O)[C@H](CCCNC(=N)N)NC(=O)[C@@H](N)CCC(N)=O)C(C)(C)SSC[C@@H](C(=O)N[C@@H](CC(N)=O)C(=O)NCC(=O)N2CCC[C@H]2C(N)=O)NC(=O)[C@@H]2CCCN2C(=O)[C@H](Cc2ccc(O)cc2)NC1=O
[1]
  IC50: 26 µM

B6: Peptide No. 155 (peptide)
peptide: QRF[Pen]TGHF[dF]GPYPCNGP-NH2
modifications: disulfide 4-14; N-terminus assumed
SMILES: C[C@@H](O)[C@@H]1NC(=O)[C@@H](NC(=O)[C@H](Cc2ccccc2)NC(=O)[C@H](CCCNC(=N)N)NC(=O)[C@@H](N)CCC(N)=O)C(C)(C)SSC[C@@H](C(=O)N[C@@H](CC(N)=O)C(=O)NCC(=O)N2CCC[C@H]2C(N)=O)NC(=O)[C@@H]2CCCN2C(=O)[C@H](Cc2ccc(O)cc2)NC(=O)[C@@H]2CCCN2C(=O)CNC(=O)[C@@H](Cc2ccccc2)NC(=O)[C@H](Cc2ccccc2)NC(=O)[C@H](Cc2c[nH]cn2)NC(=O)CNC1=O
[5]
  IC50: 39 µM
[6]
  Kd: 18.3 µM

B7: Peptide No. 153 (peptide)
peptide: QRF[Pen]TGHF[dF]G[NMeL]YPCNGP-NH2
modifications: disulfide 4-14; N-terminus assumed
SMILES: CC(C)C[C@H]1C(=O)N[C@@H](Cc2ccc(O)cc2)C(=O)N2CCC[C@H]2C(=O)N[C@H](C(=O)N[C@@H](CC(N)=O)C(=O)NCC(=O)N2CCC[C@H]2C(N)=O)CSSC(C)(C)[C@H](NC(=O)[C@H](Cc2ccccc2)NC(=O)[C@H](CCCNC(=N)N)NC(=O)[C@@H](N)CCC(N)=O)C(=O)N[C@@H]([C@@H](C)O)C(=O)NCC(=O)N[C@@H](Cc2c[nH]cn2)C(=O)N[C@@H](Cc2ccccc2)C(=O)N[C@H](Cc2ccccc2)C(=O)NCC(=O)N1C
[5]
  IC50: 1.3 µM
[6]
  Kd: 0.24 µM

B8: Peptide No. 193 (peptide)
peptide: RF[Pen]TGHF[X4]LYPC-NH2
modifications: disulfide 3-12; N-terminus assumed
SMILES: CC(C)C[C@@H]1NC(=O)CN2CCC[C@H](NC(=O)[C@H](Cc3ccccc3)NC(=O)[C@H](Cc3c[nH]cn3)NC(=O)CNC(=O)[C@H]([C@@H](C)O)NC(=O)[C@@H](NC(=O)[C@H](Cc3ccccc3)NC(=O)[C@@H](N)CCCNC(=N)N)C(C)(C)SSC[C@@H](C(N)=O)NC(=O)[C@@H]3CCCN3C(=O)[C@H](Cc3ccc(O)cc3)NC1=O)C2=O
[2]
  IC50: 7.3 µM

B9: Peptide No. 266 (peptide)
peptide: RF[Pen]TGAFG[Sar][NMeL]YPC-NH2
modifications: disulfide 3-13; N-terminus assumed
SMILES: CC(C)C[C@H]1C(=O)N[C@@H](Cc2ccc(O)cc2)C(=O)N2CCC[C@H]2C(=O)N[C@H](C(N)=O)CSSC(C)(C)[C@H](NC(=O)[C@H](Cc2ccccc2)NC(=O)[C@@H](N)CCCNC(=N)N)C(=O)N[C@@H]([C@@H](C)O)C(=O)NCC(=O)N[C@@H](C)C(=O)N[C@@H](Cc2ccccc2)C(=O)NCC(=O)N(C)CC(=O)N1C
[3]
  Kd: 9900 nM
[4]
  IC50: > 100 µM

## RFCTGXFGGLYPC (Pen 3; Thz 6; Sar 9; NMeL 10; disulfide 3-13; C-terminal amide) [Peptide No. 248]
[3]
  Kd: 840 nM
[4]
  IC50: 1.6 µM

## QRFCTGHXGGLYPCNGP (Pen 4; 2-pyridylalanine 8; disulfide 4-14; C-terminal amide) [Peptide No. 58]
[1]
  IC50: 90 µM

B10: Peptide No. 56 (peptide)
peptide: QRF[Pen]TGH[Tyr(Me)]GGLYPCNGP-NH2
modifications: disulfide 4-14; N-terminus assumed
SMILES: COc1ccc(C[C@@H]2NC(=O)[C@H](Cc3c[nH]cn3)NC(=O)CNC(=O)[C@H]([C@@H](C)O)NC(=O)[C@@H](NC(=O)[C@H](Cc3ccccc3)NC(=O)[C@H](CCCNC(=N)N)NC(=O)[C@@H](N)CCC(N)=O)C(C)(C)SSC[C@@H](C(=O)N[C@@H](CC(N)=O)C(=O)NCC(=O)N3CCC[C@H]3C(N)=O)NC(=O)[C@@H]3CCCN3C(=O)[C@H](Cc3ccc(O)cc3)NC(=O)[C@H](CC(C)C)NC(=O)CNC(=O)CNC2=O)cc1
[1]
  IC50: 100 µM
